The target of this experiment is T1, integrin ανβ3 on K562 integrin ανβ3-overexpressing cells (UniProt P06756 31-1048; P05106 27-788).
T1 construct: whole, on cells; Heterodimer overexpressed on K562 cells; Parental K562 cells served as the comparison; also called K562 integrin ανβ3 cells
Nature of the experiment: FACS on K562 integrin ανβ3-overexpressing cells, 100 nM antibody with 300 IU/ml heparin.

Method: Specifically, each of a K562 cell line and a K562 integrin ανβ3-overexpressing cell line was added to 1.5 ml at a density of 2×10⁵ cells, then washed twice with washing buffer (pH 7.4 PBS, 2% FBS). […] The cells were washed twice with washing buffer, and then stained with an Alexa488 (green fluorescence)-labeled antibody (Invitrogen) that specifically recognizes human IgG, at 4° for 1 hour. Next, the cells were washed twice with washing buffer, and analyzed by FACS.

B1: RGD10 peptide-fused anti-Ras•GTP iMab RT11 (antibody, V domains shown)
VH: EVQLVESGGGLVQPGGSLRLSCAASGFTFSSYSMSWVRQAPGKGLEWVSYISRTSHTTYYADSVKGRFTISRDNSKNTLYLQMNSLRAEDTAVYYCARGFFMDYWGQGTLVTVSS
VL: DLVMTQSPSSLSASVGDRVTITCKSSQSLFNSRTRKNYLAWYQQKPGKAPKLLIYWASTRESGVPSRFSGSGSGTDFTLTISSLQPEDFATYYCQQYYYHMYTFGQGTKVEIKR
notes: also called RGD10-RT11; RGD10 peptide-fused RT11
In the case of B1, the binding result is on record as “binds”.

Values taken from patent US20170158777A1 (ORUM THERAPEUTICS, published 2017).
